The supplement of paper PMC10567573

B1: RTN1 (parent)
chain: VVAYLALAALSATISFRIYKSVLQ
B2: SNAP91 (parent)
chain: FAAPSPATTASPAKVDSSGVIDLF

Variants of: B1
Assay: protein stability index of a GFP-peptide fusion (GPS, HEK-293T) (PSI 1-6); higher = more stable
Settings: c terminus: a fixed tail appended
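Further: lentivirally expressed fusions sorted by FACS into six bins by GFP to DsRed ratio, PSI derived from sequencing read proportions per bin multiplied by bin number.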

Protein stability index, by site and new letter:
V2: C 3.71; N 2.97; W 1.31; P 1.66; G 1.72; F 2.9; Q 3.03; H 4.06; Y 3; R 3.31; T 3.88; A 2.61; E 2.41; I 1.66; K 4.51; D 2.43; S 2.18; M 2.66; L 2.63
A8: M 4.1; W 3.8; R 2.18; P 3.27; N 1.69; F 1.68; D 2.28; I 3.23; Y 2.76; H 1.75; K 2.2; L 2.31; T 2.32; C 1.26; Q 4.3; S 1.95; E 2.46
S21: M 2.42; W 2.52; E 2.38; A 1.89; K 1.45; I 2.91; V 4.53; P 1.65; R 1.99; Q 2.56; F 2.18; T 3.04; H 1.9; N 1.52
A3: L 2.06; C 3.67; G 1.88; H 2.2; D 2.01; V 2.16; F 2.82; Y 3.35; Q 2.68; R 2.69; W 2.72; P 2.66; E 3.04; K 1.08; I 2.65; M 2.6
A9: L 2.44; N 3.05; T 2.52; S 2.41; V 2.94; G 1.53; Y 3.25; C 2.86; D 2.48; W 1.94; E 2.85; K 2.25; F 2.86; M 1.46; I 2.31; P 3.77
A12: E 2.05; L 3.9; Y 2.39; H 3.12; W 3.1; V 3.42; F 2.85; T 1.95; Q 2.67; C 2.45
F16: Y 3.52; D 2.94; P 4.4; V 2.15; Q 3; N 2.28; K 1.86; A 2.88; L 2.57; S 2.99; E 1.76; H 3.82
L10: T 2.51; M 3.33; Q 2.41; K 2.42; G 3.08; E 2.17; N 3.25; W 2.44; Y 2.83; R 1.98; C 2.2; P 2.69; H 2.74; F 2.31; A 2.38
S11: N 3.04; M 2.45; C 1.28; V 1.41; D 3.61; F 2.3; P 2.49; H 2.33; Y 2.33; A 3.26; T 2.81; G 2.02; K 2.4; R 2.44; W 2.55
I18: P 3.69; V 4.01; E 3.04; K 4.46; R 2.8; S 2.78; N 3.51; Y 3.91; L 1.99; G 2.69; A 1.05; W 4.75; T 1.35; F 2.06
Y4: D 2.35; H 2.65; I 4.11; F 2.5; G 4.1; M 2.6; L 2.37; K 2.3; C 3.23; T 4.26; W 1.9; Q 2.68; E 2.1; R 3; P 1.75; N 3.01
A6: G 4.25; P 2.32; C 2.86; F 3.07; R 3.2; K 2.74; Q 1.42; I 1.91; Y 2.9; M 3.4; E 2.6; H 2.32; W 3.42; D 3.37; S 2.88; T 2.77; V 3.12
S15: P 2.71; M 1.21; A 1.01; C 2.23; F 1.27; H 3.38; V 4.48; T 2.56; Q 2.82; I 1.84; G 2.29
Y19: F 1.46; S 2.1; W 1.49; I 2.51; L 1.46; H 2.75; A 2.51; P 2.41; R 3.4; V 2.12; M 2.3; Q 3.66; C 2.46; E 4.55
R17: N 4.14; I 2.21; D 2.83; Y 3.59; K 2.03; H 2.7; M 2.83; P 2.35; F 1.94
L5: P 2.31; E 1.58; R 1.78; W 3.59; T 2.43; I 2.01; N 2.34; A 2.47; K 1.89; Q 2.8; M 2.54; V 1.63; Y 1.83; D 2.42; G 1.95; F 3.22; H 2.85
V1: L 2.56; H 1.68; W 1.72; A 3.01; Y 2.03; R 2.44; S 2.55; C 1.99; M 2.21; T 2.62; D 2.2; Q 2.13; E 3.26; K 1.61; G 1.96; F 2.66; I 2.75; N 2.64
L7: E 2.39; A 3.97; W 4.04; Q 2.07; R 2.26; T 2.52; V 3.13; D 1.99; K 3.13; N 2.38; I 2.46; P 2.7; F 2.47; G 3.96; Y 3.97; M 2.91; S 2.63
K20: D 2.89; G 3.57; R 4.17; A 3.28; P 2.58; M 3.61; S 2.68; N 2.27; E 5.17; H 3.98; W 2.77; T 3.84
I14: G 2.49; H 2.72; R 3.01; T 2.12; K 1.96; A 2.8; E 3.06; L 1.7; N 1.02; M 3.4
T13: H 2.61; N 2.54; W 2.05; V 2.39; P 2.21; C 1.87; G 1.32; K 2.77; R 2.82; E 3.33; Y 1.86; M 1.58; F 2.43; A 1.2; I 2.86
V22: E 3.42; F 3.99; D 3.13; A 3.36; C 3.58

Variants of: B2
Assay: as above
Settings: c terminus: a fixed tail appended

Protein stability index: each site, then its substitutions
F24: D 4.54; G 4.35; P 4.31; K 4.2; R 3.56; Q 3.85; I 3.34; N 4.1; Y 2.88; E 4.51; M 3.72; W 1.22; L 3.13; T 3.75; A 4.03; S 3.77; V 3.99; H 4.52
L23: V 2.83; W 2.55; Q 4.46; R 3.76; Y 3.2; S 4.11; T 3.74
